Assay results from IntAct's records for PubMed 12386165.

B1: Solute carrier family 12 member 1 (Homo sapiens), Q13621 (parent)
chain: MSLNNSSNVFLDSVPSNTNRFQVSVINENHESSAAADDNTDPPHYEETSFGDEAQKRLRISFRPGNQECYDNFLQSGETAKTDASFHAYDSHTNTYYLQTFGHNTMDAVPKIEYYRNTGSISGPKVNRPSLLEIHEQLAKNVAVTPSSADRVANGDGIPGDEQAENKEDDQAGVVKFGWVKGVLVRCMLNIWGVMLFIRLSWIVGEAGIGLGVLIILLSTMVTSITGLSTSAIATNGFVRGGGAYYLISRSLGPEFGGSIGLIFAFANAVAVAMYVVGFAETVVDLLKESDSMMVDPTNDIRIIGSITVVILLGISVAGMEWEAKAQVILLVILLIAIANFFIGTVIPSNNEKKSRGFFNYQASIFAENFGPRFTKGEGFFSVFAIFFPAATGILAGANISGDLEDPQDAIPRGTMLAIFITTVAYLGVAICVGACVVRDATGNMNDTIISGMNCNGSAACGLGYDFSRCRHEPCQYGLMNNFQVMSMVSGFGPLITAGIFSATLSSALASLVSAPKVFQALCKDNIYKALQFFAKGYGKNNEPLRGYILTFLIAMAFILIAELNTIAPIISNFFLASYALINFSCFHASYAKSPGWRPAYGIYNMWVSLFGAVLCCAVMFVINWWAAVITYVIEFFLYVYVTCKKPDVNWGSSTQALSYVSALDNALELTTVEDHVKNFRPQCIVLTGGPMTRPALLDITHAFTKNSGLCICCEVFVGPRKLCVKEMNSGMAKKQAWLIKNKIKAFYAAVAADCFRDGVRSLLQASGLGRMKPNTLVIGYKKNWRKAPLTEIENYVGIIHDAFDFEIGVVIVRISQGFDISQVLQVQEELERLEQERLALEATIKDNECEEESGGIRGLFKKAGKLNITKTTPKKDGSINTSQSMHVGEFNQKLVEASTQFKKKQEKGTIDVWWLFDDGGLTLLIPYILTLRKKWKDCKLRIYVGGKINRIEEEKIVMASLLSKFRIKFADIHIIGDINIRPNKESWKVFEEMIEPYRLHESCKDLTTAEKLKRETPWKITDAELEAVKEKSYRQVRLNELLQEHSRAANLIVLSLPVARKGSISDLLYMAWLEILTKNLPPVLLVRGNHKNVLTFYS
B2: Solute carrier family 12 member 6 (Mus musculus), Q924N4-1 (parent)
chain: MHPPEATTKMSSVRFMVTPTKIDDIPGLSDTSPDLSSRSSSRVRFSSRESVPETSRSEPMSELSGATTSLATVALDPSSDRTSNPQDVTEDPSQNSITGEHSQLLDDGHKKARNAYLNNSNYEEGDEYFDKNLALFEEEMDTRPKVSSLLNRMANYTNLTQGAKEHEEAENITEGKKKPTKSPQMGTFMGVYLPCLQNIFGVILFLRLTWVVGTAGILQAFAIVLICCCCTMLTAISMSAIATNGVVPAGGSYFMISRALGPEFGGAVGLCFYLGTTFAAAMYILGAIEIFLVYIVPRAAIFRSDDALKESAAMLNNMRVYGTAFLVLMVLVVFIGVRYVNKFASLFLACVIVSILAIYAGAIKSSFAPPHFPVCMLGNRTLSSRHLDICSKTKEVDNMTVPSKLWGFFCNSSQFFNATCDEYFVHNNVISIQGIPGLASGIITENLWSNYLPKGEIIEKPSAKSSDVLGNLNHEYVLADITTSFTLLVGIFFPSVTGIMAGSNRSGDLKDAQKSIPIGTILAILTTSFVYLSNVVLFGACIEGVVLRDKFGDAVKGNLVVGTLSWPSPWVIVIGSFFSTCGAGLQSLTGAPRLLQAIAKDNIIPFLRVFGHSKANGEPTWALLLTAAIAELGILIASLDLVAPILSMFFLMCYLFVNLACALQTLLRTPNWRPRFRYYHWALSFMGMSICLALMFISSWYYAIVAMVIAGMIYKYIEYQGAEKEWGDGIRGLSLSAARFALLRLEEGPPHTKNWRPQLLVLLKLDEDLHVKHPRLLTFASQLKAGKGLTIVGSVIVGNFLENYGDALAAEQTIKHLMEAEKVKGFCQLVVAAKLKEGISHLIQSCGLGGMKHNTVVMGWPNGWRQSEDARAWKTFIGTVRVTTAAHLALLVAKNVSFFPSNVEQFSEGNIDVWWIVHDGGMLMLLPFLLKQHKVWRKCSIRIFTVAQLEDNSIQMKKDLATFLYHLRIEAEVEVVEMHDSDISAYTYERTLMMEQRSQMLRHMRLSKTERDREAQLVKDRNSMLRLTSIGSDEDEETETYQEKVHMTWTKDKYMASRGQKVKSMEGFQDLLNMRPDQSNVRRMHTAVKLNEVIVNKSHEAKLVLLNMPGPPRNPEGDENYMEFLEVLTEGLERVLLVRGGGSEVITIYS

Tests used:
[1] = variants of: B1; conditions: with stk39_mouse Stk39, Q9Z1W9
[2] = variants of: B1; conditions: with oxsr1_mouse Oxsr1, Q6P9R2
Target sequence in this assay (Q6P9R2 whole entry): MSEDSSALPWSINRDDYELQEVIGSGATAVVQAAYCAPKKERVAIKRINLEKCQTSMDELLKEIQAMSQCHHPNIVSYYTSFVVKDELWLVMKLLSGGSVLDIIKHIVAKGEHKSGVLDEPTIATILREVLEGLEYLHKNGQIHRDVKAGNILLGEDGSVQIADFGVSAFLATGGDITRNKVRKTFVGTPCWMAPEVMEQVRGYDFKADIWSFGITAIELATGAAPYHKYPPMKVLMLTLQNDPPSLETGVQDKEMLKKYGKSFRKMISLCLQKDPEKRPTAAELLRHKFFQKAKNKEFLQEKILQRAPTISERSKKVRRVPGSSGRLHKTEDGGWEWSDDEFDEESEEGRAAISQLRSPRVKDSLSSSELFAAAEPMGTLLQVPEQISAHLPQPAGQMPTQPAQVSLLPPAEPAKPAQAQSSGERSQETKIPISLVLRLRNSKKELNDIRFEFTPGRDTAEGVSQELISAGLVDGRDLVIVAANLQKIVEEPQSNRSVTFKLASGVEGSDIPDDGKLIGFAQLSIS

[3] = variants of: B2; conditions: with oxsr1_mouse Oxsr1, Q6P9R2; remark: listed apart in the source
Target sequence in this assay (Q6P9R2 whole entry): as above

[4] = variants of: B2; conditions: with stk39_mouse Stk39, Q9Z1W9; remark: listed apart in the source

S24A
effect of a mutation on the interaction [1]: decreasing interaction
effect of a mutation on the interaction [2]: decreasing interaction

N27A
effect of a mutation on the interaction [1]: decreasing interaction
effect of a mutation on the interaction [2]: decreasing interaction

E28A
effect of a mutation on the interaction [1]: decreasing interaction
effect of a mutation on the interaction [2]: decreasing interaction

V25A
effect of a mutation on the interaction [1]: decreasing interaction
effect of a mutation on the interaction [2]: decreasing interaction

R20A
effect of a mutation on the interaction [1]: decreasing interaction
effect of a mutation on the interaction [2]: decreasing interaction

F21A
effect of a mutation on the interaction [1]: decreasing interaction
effect of a mutation on the interaction [2]: decreasing interaction

V23A
effect of a mutation on the interaction [1]: decreasing interaction
effect of a mutation on the interaction [2]: decreasing interaction

I22A
effect of a mutation on the interaction [3]: decreasing interaction
effect of a mutation on the interaction [4]: decreasing interaction

K21A
effect of a mutation on the interaction [3]: decreasing interaction
effect of a mutation on the interaction [4]: decreasing interaction

F15A
effect of a mutation on the interaction [3]: decreasing interaction
effect of a mutation on the interaction [4]: decreasing interaction

V17A
effect of a mutation on the interaction [3]: decreasing interaction
effect of a mutation on the interaction [4]: decreasing interaction

R14A
effect of a mutation on the interaction [3]: decreasing interaction
effect of a mutation on the interaction [4]: decreasing interaction

P19A
effect of a mutation on the interaction [3]: decreasing interaction
effect of a mutation on the interaction [4]: decreasing interaction
